Experimental data as given in publication PMC10952227.

Experiments:
[1] = target: Guanylyl cyclase-A (GC-A), human (human) (UniProt P16066)
[2] = target: Guanylyl cyclase-A (GC-A), human (human) (UniProt P16066); assay: radioligand binding; whole GC-A-expressing QBIHEK293A cells; 50 pmol/L 125I-ANP with increasing concentrations of compound #20; DMEM with 1% BSA; 4°C, 1 h

Chain of UniProt P16066 (P16066 33-473): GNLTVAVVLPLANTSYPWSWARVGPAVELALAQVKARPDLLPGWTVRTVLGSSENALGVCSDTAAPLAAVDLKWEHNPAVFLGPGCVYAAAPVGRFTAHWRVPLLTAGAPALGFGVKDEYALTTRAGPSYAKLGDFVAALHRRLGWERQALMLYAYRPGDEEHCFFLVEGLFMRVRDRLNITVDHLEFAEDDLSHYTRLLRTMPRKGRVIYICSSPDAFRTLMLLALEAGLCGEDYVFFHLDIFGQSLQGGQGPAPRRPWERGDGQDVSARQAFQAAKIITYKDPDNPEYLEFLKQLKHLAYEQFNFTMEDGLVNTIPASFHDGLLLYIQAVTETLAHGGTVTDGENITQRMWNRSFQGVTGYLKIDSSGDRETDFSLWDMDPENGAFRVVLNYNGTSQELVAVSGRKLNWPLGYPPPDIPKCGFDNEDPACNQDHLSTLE

cGMP production (AlphaScreen) in GC-A-expressing QBIHEK293A cells, concentration-response of human BNP without compound: EC50 [1] [nM] | increase of binding by increasing concentrations of compound #20 [2] [%] | Substance
1 | – | Brain natriuretic peptide (BNP)
– | 71 | ^125I-ANP (peptide)
